Measurements: patent publication US12534541B2, “Anti-PTK7 antibody and uses thereof” (MABCARE THERAPEUTICS, priority 2023, dated 2026)

Assays:
Human PTK7 protein = target: T1, Human PTK7 protein (Homo sapiens, UniProt Q13308); test: Relative binding activity to human PTK7 by ELISA
T1 construct: purchased Acrobiosystems PT7-H52H3
T1 sequence (Q13308 31-1070): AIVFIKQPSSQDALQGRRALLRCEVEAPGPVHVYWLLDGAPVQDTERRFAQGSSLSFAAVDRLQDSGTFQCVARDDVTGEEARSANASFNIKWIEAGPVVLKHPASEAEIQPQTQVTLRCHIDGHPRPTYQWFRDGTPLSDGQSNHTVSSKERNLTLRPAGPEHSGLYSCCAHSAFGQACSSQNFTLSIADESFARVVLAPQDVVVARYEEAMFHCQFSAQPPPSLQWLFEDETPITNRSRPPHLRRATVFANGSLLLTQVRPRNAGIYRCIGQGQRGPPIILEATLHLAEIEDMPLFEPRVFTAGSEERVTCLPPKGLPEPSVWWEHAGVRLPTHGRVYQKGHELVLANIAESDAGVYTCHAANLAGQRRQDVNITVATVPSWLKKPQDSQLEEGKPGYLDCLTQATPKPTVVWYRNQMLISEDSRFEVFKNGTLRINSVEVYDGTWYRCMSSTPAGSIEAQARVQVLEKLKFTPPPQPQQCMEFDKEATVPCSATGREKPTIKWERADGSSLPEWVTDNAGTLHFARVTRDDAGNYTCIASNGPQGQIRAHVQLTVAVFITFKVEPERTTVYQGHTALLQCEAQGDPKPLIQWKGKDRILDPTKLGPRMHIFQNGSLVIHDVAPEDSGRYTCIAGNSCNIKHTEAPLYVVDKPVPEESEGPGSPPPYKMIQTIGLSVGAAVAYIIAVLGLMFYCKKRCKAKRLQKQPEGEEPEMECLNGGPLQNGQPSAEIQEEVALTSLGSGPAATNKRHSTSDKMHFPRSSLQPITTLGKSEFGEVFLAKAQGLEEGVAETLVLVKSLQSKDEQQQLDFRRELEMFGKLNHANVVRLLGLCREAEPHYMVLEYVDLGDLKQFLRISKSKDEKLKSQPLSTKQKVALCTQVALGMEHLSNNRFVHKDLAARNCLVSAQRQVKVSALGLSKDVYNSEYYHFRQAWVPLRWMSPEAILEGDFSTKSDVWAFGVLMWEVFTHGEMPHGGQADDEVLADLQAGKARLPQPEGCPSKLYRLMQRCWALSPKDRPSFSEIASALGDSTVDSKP
Method: (§1) Human PTK7 protein (Catalog No. PT7-H52H3, Acrobiosystems), monkey PTK7 protein (Catalog No. PT7-C52H3, Acrobiosystems), and murine PTK7 protein (Catalog No. PT7-M52H3, Acrobiosystems) were incubated at 4° C. overnight and immobilized onto a 96-well plate. The plate was then blocked by incubating at 37° C. with 1% BSA in PBS for 1 h. After blocking, the plate was washed 3 times with PBST (PBS containing 0.05% Tween 20). Serial dilutions of anti-PTK7 antibody as prepared in Example 2 of the present disclosure was prepared in a binding buffer (PBS containing 0.05% Tween20 and 0.5% BSA) and incubated with the immobilized proteins at 37° C. for 1 h. After binding, the plate was washed 3 times with PBST, incubated with peroxidase-labeled donkey anti-human IgG (Jackson ImmunoResearch) diluted at 1/15,000 in the binding buffer at 37° C. for 1 h, washed again, developed with TMB and terminated with 1M H2SO4. The absorbance at 450 nm-620 nm was measured.

monkey PTK7 protein = test: Relative binding activity to monkey PTK7 by ELISA
Method: as §1

murine PTK7 protein = target: T2, murine PTK7 protein (Mus musculus, UniProt Q8BKG3); test: Relative binding activity to murine PTK7 by ELISA; settings: immobilized protein
T2 construct: purchased Acrobiosystems PT7-M52H3
T2 sequence (Q8BKG3 23-1062): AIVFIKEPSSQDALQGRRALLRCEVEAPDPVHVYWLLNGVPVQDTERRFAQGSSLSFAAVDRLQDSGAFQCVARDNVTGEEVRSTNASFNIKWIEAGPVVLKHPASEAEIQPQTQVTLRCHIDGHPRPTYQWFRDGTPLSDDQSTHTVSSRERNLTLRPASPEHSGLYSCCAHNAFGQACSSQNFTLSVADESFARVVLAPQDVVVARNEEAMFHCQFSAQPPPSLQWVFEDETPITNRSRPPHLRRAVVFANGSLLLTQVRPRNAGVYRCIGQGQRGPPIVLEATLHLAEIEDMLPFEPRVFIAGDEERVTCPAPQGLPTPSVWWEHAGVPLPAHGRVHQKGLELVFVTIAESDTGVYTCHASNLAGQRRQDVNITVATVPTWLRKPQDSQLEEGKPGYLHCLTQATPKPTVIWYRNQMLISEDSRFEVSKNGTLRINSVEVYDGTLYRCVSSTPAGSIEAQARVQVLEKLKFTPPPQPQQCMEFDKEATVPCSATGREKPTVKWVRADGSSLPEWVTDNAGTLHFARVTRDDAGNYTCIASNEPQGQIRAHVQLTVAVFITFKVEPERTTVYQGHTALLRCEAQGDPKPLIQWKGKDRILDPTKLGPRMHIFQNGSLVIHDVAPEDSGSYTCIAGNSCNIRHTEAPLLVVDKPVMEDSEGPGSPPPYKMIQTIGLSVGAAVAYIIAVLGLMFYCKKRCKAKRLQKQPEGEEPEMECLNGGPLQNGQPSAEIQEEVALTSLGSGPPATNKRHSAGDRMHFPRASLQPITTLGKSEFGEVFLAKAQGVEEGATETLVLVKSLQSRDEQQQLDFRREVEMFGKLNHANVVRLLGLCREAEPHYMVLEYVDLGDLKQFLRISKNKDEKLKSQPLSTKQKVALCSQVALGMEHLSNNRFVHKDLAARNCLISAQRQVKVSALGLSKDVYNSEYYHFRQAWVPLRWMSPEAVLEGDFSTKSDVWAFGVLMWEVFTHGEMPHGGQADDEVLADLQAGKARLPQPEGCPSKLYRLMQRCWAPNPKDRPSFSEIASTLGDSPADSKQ
Method: as §1

B1: ch13: human-murine chimeric PTK7 antibody, VH SEQ ID NO: 20, VL SEQ ID NO: 19 (antibody, V domains shown)
VH: QVQLQQSGAELVRPGVSVKISCKGSGYTFTDYGMHWLKQSHAKSLEWIGVISPYYGDVTYNQKFKGKATMTVDKSSSTAYMELARLTSEDSAIYYCARGMGYWGQGTSVTVSS
VL: DVQITQSPSYLAASPGETITINCRASQSISKYLAWYQEKPGKTNKLLIYSGSTLQSGIPSRFSGSGSGTDFTLTISSLEPEDFAMYYCQQHNEYPWTFGGGTKLEIK
For B1, which “affinity compared with h6M24 (positive control antibody)” value (Human PTK7 protein; human PTK7) is on record?
Its value is “significantly superior over that of h6M24”.

And the “binding to human PTK7 protein” value (Human PTK7 protein; immobilized protein)?
Its value is “specifically bind”.

What about the “binding to monkey PTK7 protein” value (monkey PTK7 protein; immobilized protein) of the same molecule?
The value was “specifically bind”.

What about the “affinity compared with h6M24 (positive control antibody)” value (monkey PTK7 protein; monkey PTK7) of the same molecule?
The value was “significantly superior over that of h6M24”.

What about the “cross-reaction with mouse PTK7” value (murine PTK7 protein) of the same molecule?
The value was “neither ch13 nor h6M24 antibodies cross-react”.
